Reference: publication PMC7020209 (Plants, 2020)
Where two headings read alike, the source gives them in different places.

B1: Cp-GOXc (Cyanophora paradoxa) (protein)
chain: MQPLSAQALAQYRAAAPMDPVNVMEYQMVAKEKLPKMVYDYYASGADDQWTLQEARSAFERITFRPRVLVDVSVQDMSTTILGQKVAFPICVAPTAMQCMATGQGEKATSRAVASMNTLMTLSSWSTTPLEEVAKAAPHGARWFQLYVYKDRACTERLVRRAQAAGYKALCLTVDTPRLGRRENDVKNRFHLPDGLTMGNFLDLVQAEMPTDQKDSGLAAYVASLIDPTLNWKDVEWLKTITNLPIVVKGVLTAEDALMAVKHGCAGIVVSNHGARQLDYSPATIDVLEEVVNAVRGYPIEVYLDGGVRRGTDALKALALGARAVFVGRPVVWGLAAGGEEGVRKVLTMLRDEFKLGLALLGCQSLKDINRSMVVTPADRAKTAVRARL
B2: Sp-GOX (Spirogyra pratensis) (protein)
chain: MSSEVVNVTEFQAIAKQKLPKQTYDYYASGAEDEWSLRENRNAFERITFRPRILIDVSKIDLTTSVLGYRLSMPIMVAPTAMQKMAHPDGELATARAATSMNTAMTLSSWATSSVEEVSSTGPGLRFFQLYVYKNRDVVLQLVRRAEKAGFKAIALTVDTPRLGRREADIRNKFVLPPGLTLKNFEGLDLGKMDQTEDSGLASYVAGQIDRSLSWKDVKWLQSVTSMPILVKGVITGEDAKIAVECGASGIIVSNHGARQLDYVSSTINALEEVVKATAGRIPVFLDGGVRRGTDVLKALALGAKGVFVGRPVVFALASDGEAGVKKCLQMLRDEFELAMALAGCTKISDINRSLVQTEGDRIRMAARL

How the values were obtained:
Conditions in all cases: co-substrate O2, 30 °C
N3-GOX = assay: O2 consumption, Hansatech oxygen electrode, nonlinear Michaelis-Menten fit; format: biochemical, synthetic construct
Text: O2 consumption, Hansatech oxygen electrode, nonlinear Michaelis-Menten fit on N3-GOX

purified protein [1] = substrate: C[C@H](O)C(=O)O; assay: purified protein
purified protein [2] = substrate: O=C(O)CO; assay: purified protein

Molecule | Km (N3-GOX; read-out: L-Lactate / Km) [mM] | Km (N3-GOX; read-out: Glycolate / Km) [mM] | Km (purified protein [1]) [mM] | Vmax (purified protein [1]) [µmol/min/mg] | Km (purified protein [2]) [mM] | Vmax (purified protein [2]) [µmol/min/mg]
C[C@H](O)C(=O)O [L-lactate] | 13.7 ± 1.93 |  |  |  |  | 
O=C(O)CO [glycolate] |  | 11.8 ± 0.61 |  |  |  | 
B1 |  |  | 9.27 ± 1.44 | 6.94 | 0.38 ± 0.05 | 8.98
B2 |  |  | 15.52 ± 4.55 | 24.2 | 0.94 ± 0.12 | 28.1
